B1: ADI-47741 (antibody, human IgG1, kappa, V domains shown)
VH: QVQLQESGPGLVKPSETLSLTCTVSGGSISSYYWSWIRQPPGKGLEWIGSIYYSGSTNYNPSLKSRVTISVDTSKNQFSLKLSSVTAADTAVYYCARDANYYKWHPYWGQGTLVTVSS
VL: EIVLTQSPGTLSLSPGERATLSCRASQSVSSDYLAWYQQKPGQAPRLLIYGASSRATGIPDRFSGSGSGTDFTLTISRLEPEDFAVYYCQQVLSYPPTFGGGTKVEIKR
B2: ADI-47741 Fab (Fab, V domains shown)
VH: QVQLQESGPGLVKPSETLSLTCTVSGGSISSYYWSWIRQPPGKGLEWIGSIYYSGSTNYNPSLKSRVTISVDTSKNQFSLKLSSVTAADTAVYYCARDANYYKWHPYWGQGTLVTVSS
VL: EIVLTQSPGTLSLSPGERATLSCRASQSVSSDYLAWYQQKPGQAPRLLIYGASSRATGIPDRFSGSGSGTDFTLTISRLEPEDFAVYYCQQVLSYPPTFGGGTKVEIK
B3: ADI-55136 Fab (Fab, V domains shown)
VH: QVQLVESGGGVVQPGRSLRLSCAASGFTFSSYGMHWVRQAPGKGLEWVAVISYHASSKYYADSVKGRFTISRDNSKNTLYLQMNSLRAEDTAVYYCARDTSRGHDIWGQGTMVTVSS
VL: EIVLTQSPGTLSLSPGERATLSCRASQSVSSSYLAWYQQKPGQAPRLLIYGASSRATGIPDRFSGSGSGTDFTLTISRLEPEDFAVYYCQQYADYPPFTFGGGTKVEIK
B4: ADI-55140 (antibody, human IgG1, kappa, V domains shown)
VH: QVQLVESGGGVVQPGRSLRLSCAASGFTFEKYGMHWVRQAPGKGLEWVAVIHYEGSIKYYADSVKGRFTISRDNSKNTLYLQMNSLRAEDTAVYYCARDTSRGHDIWGQGTMVTVSS
VL: EIVLTQSPGTLSLSPGERATLSCRASQSVSYDYLAWYQQKPGQAPRLLIYGASTRANGIPDRFSGSGSGTDFTLTISRLEPEDFAVYYCGEYADYPPFTFGGGTKVEIKR
B5: ADI-55145 Fab (Fab, V domains shown)
VH: QVQLVESGGGVVQPGRSLRLSCAASGFTFEKYGMHWVRQAPGKGLEWVAVISYEGTSKYYADSVKGRFTISRDNSKNTLYLQMNSLRAEDTAVYYCARDTSRGHDIWGQGTMVTVSS
VL: EIVLTQSPGTLSLSPGERATLSCQASQSVSYNYLAWYQQKPGQAPRLLIYGASSRNNGIPDRFSGSGSGTDFTLTISRLEPEDFAVYYCQQYSDYPPFTFGGGTKVEIK
B6: ADI-55144 Fab (Fab, V domains shown)
VH: QVQLVESGGGVVQPGRSLRLSCAASGFTFEKYGMHWVRQAPGKGLEWVAVISYEGTKKYYADSVKGRFTISRDNSKNTLYLQMNSLRAEDTAVYYCARDTSRGHDIWGQGTMVTVSS
VL: EIVLTQSPGTLSLSPGERATLSCRASQSVSYSYLAWYQQKPGQAPRLLIYGASSLATGIPDRFSGSGSGTDFTLTISRLEPEDFAVYYCQQYSDYPPFTFGGGTKVEIK
B7: ADI-55144 (antibody, human IgG1, kappa, V domains shown)
VH: QVQLVESGGGVVQPGRSLRLSCAASGFTFEKYGMHWVRQAPGKGLEWVAVISYEGTKKYYADSVKGRFTISRDNSKNTLYLQMNSLRAEDTAVYYCARDTSRGHDIWGQGTMVTVSS
VL: EIVLTQSPGTLSLSPGERATLSCRASQSVSYSYLAWYQQKPGQAPRLLIYGASSLATGIPDRFSGSGSGTDFTLTISRLEPEDFAVYYCQQYSDYPPFTFGGGTKVEIKR
B8: ADI-55140 Fab (Fab, V domains shown)
VH: QVQLVESGGGVVQPGRSLRLSCAASGFTFEKYGMHWVRQAPGKGLEWVAVIHYEGSIKYYADSVKGRFTISRDNSKNTLYLQMNSLRAEDTAVYYCARDTSRGHDIWGQGTMVTVSS
VL: EIVLTQSPGTLSLSPGERATLSCRASQSVSYDYLAWYQQKPGQAPRLLIYGASTRANGIPDRFSGSGSGTDFTLTISRLEPEDFAVYYCGEYADYPPFTFGGGTKVEIK
B9: ADI-55144-2 (antibody, human IgG1, kappa, V domains shown)
VH: QVQLVESGGGVVQPGRSLRLSCAASGFTFEKYGMHWVRQAPGKGLEWVAVISYEGTKKYYAESVKGRFTISRDNSKNTLYLQMNSLRAEDTAVYYCARDTSRGHDIWGQGTMVTVSS
VL: EIVLTQSPGTLSLSPGERATLSCRASQSVSYSYLAWYQQKPGQAPRLLIYGASSLATGIPDRFSGSGSGTDFTLTISRLEPEDFAVYYCQQYSDYPPFTFGGGTKVEIKR
B10: ADI-55136 (antibody, human IgG1, kappa, V domains shown)
VH: QVQLVESGGGVVQPGRSLRLSCAASGFTFSSYGMHWVRQAPGKGLEWVAVISYHASSKYYADSVKGRFTISRDNSKNTLYLQMNSLRAEDTAVYYCARDTSRGHDIWGQGTMVTVSS
VL: EIVLTQSPGTLSLSPGERATLSCRASQSVSSSYLAWYQQKPGQAPRLLIYGASSRATGIPDRFSGSGSGTDFTLTISRLEPEDFAVYYCQQYADYPPFTFGGGTKVEIKR
B11: ADI-55147 Fab (Fab, V domains shown)
VH: QVQLVESGGGVVQPGRSLRLSCAASGFTFGSYGMHWVRQAPGKGLEWVAVISYEGVKKYYADSVKGRFTISRDNSKNTLYLQMNSLRAEDTAVYYCARDTSRGHDIWGQGTMVTVSS
VL: EIVLTQSPGTLSLSPGERATLSCRASQSVSYDYLAWYQQKPGQAPRLLIYGASARANGIPDRFSGSGSGTDFTLTISRLEPEDFAVYYCQQYADYPPFTFGGGTKVEIK
notes: also called Fab fragment of ADI-55147
B12: ADI-55142 Fab (Fab, V domains shown)
VH: QVQLVESGGGVVQPGRSLRLSCAASGFTFEKYGMHWVRQAPGKGLEWVAVISYEGEKKYYADSVKGRFTISRDNSKNTLYLQMNSLRAEDTAVYYCARDTSRGHDIWGQGTMVTVSS
VL: EIVLTQSPGTLSLSPGERATLSCRASQSVSYSYLAWYQQKPGQAPRLLIYGASSRANGIPDRFSGSGSGTDFTLTISRLEPEDFAVYYCSDYADYPPFTFGGGTKVEIK
B13: ADI-55168 (antibody, human IgG1, kappa, V domains shown)
VH: EVQLVESGGGLVQPGRSLRLSCAASGFTFDTYAMHWVRQAPGKGLEWVSGISWSSGSIHYADSVKGRFTISRDNAKNSLYLQMNSLRAEDTAVYYCAKDPTATTGARGYFDLWGRGTLVTVSS
VL: DIQMTQSPSSVSASVGDRVTITCEASQVISSWLAWYQQKPGKAPKLLIYAASYLQSGVPSRFSGSGSGTDFTLTISSLQPEDFATYYCQQHSSFPPTFGGGTKVEIKR
B14: ADI-55168 Fab (Fab, V domains shown)
VH: EVQLVESGGGLVQPGRSLRLSCAASGFTFDTYAMHWVRQAPGKGLEWVSGISWSSGSIHYADSVKGRFTISRDNAKNSLYLQMNSLRAEDTAVYYCAKDPTATTGARGYFDLWGRGTLVTVSS
VL: DIQMTQSPSSVSASVGDRVTITCEASQVISSWLAWYQQKPGKAPKLLIYAASYLQSGVPSRFSGSGSGTDFTLTISSLQPEDFATYYCQQHSSFPPTFGGGTKVEIK
B15: ADI-55164 (antibody, human IgG1, kappa, V domains shown)
VH: EVQLVESGGGLVQPGRSLRLSCAASGFTFDDYAMHWVRQAPGKGLEWVSGISWSSDSIHYADSVKGRFTISRDNAKNSLYLQMNSLRAEDTAVYYCAKDPTATTGARGYFDLWGRGTLVTVSS
VL: DIQMTQSPSSVSASVGDRVTITCRASKVISSWLAWYQQKPGKAPKLLIYAASYLESGVPSRFSGSGSGTDFTLTISSLQPEDFATYYCQQHSSFPPTFGGGTKVEIKR
B16: ADI-55164 Fab (Fab, V domains shown)
VH: EVQLVESGGGLVQPGRSLRLSCAASGFTFDDYAMHWVRQAPGKGLEWVSGISWSSDSIHYADSVKGRFTISRDNAKNSLYLQMNSLRAEDTAVYYCAKDPTATTGARGYFDLWGRGTLVTVSS
VL: DIQMTQSPSSVSASVGDRVTITCRASKVISSWLAWYQQKPGKAPKLLIYAASYLESGVPSRFSGSGSGTDFTLTISSLQPEDFATYYCQQHSSFPPTFGGGTKVEIK
notes: also called Fab fragment of ADI-55164
B17: ADI-47720 Fab (Fab, V domains shown)
VH: EVQLVESGGGLVQPGRSLRLSCAASGFTFDDYAMHWVRQAPGKGLEWVSGISWSSGSIGYADSVKGRFTISRDNAKNSLYLQMNSLRAEDTAVYYCAKDPTATTGARGYFDLWGRGTLVTVSS
VL: DIQMTQSPSSVSASVGDRVTITCRASQGISSWLAWYQQKPGKAPKLLIYAASSLQSGVPSRFSGSGSGTDFTLTISSLQPEDFATYYCQQRASFPPTFGGGTKVEIK

Assays:
[1] = target: T1, cynomolgus CD40-Fc protein (cynomolgus, UniProt G7PG38 21-193); experiment: BLI (ForteBio), IgG on AHQ sensor, 100 nM CD40-Fc in solution, bivalent, 1:1 model
T1 construct: not shown: Fc part
Protocol: (§1) The antibody-loaded sensor was further incubated in a high concentration of irrelevant intact antibody solution for 10 minutes to saturate and block the Fc binding sites on the AHQ sensor. The blocked sensor was then incubated with 100 nM CD40-Fc antigen until a plateau was reached, and then the sensor was transferred to the analysis buffer for at least 2 minutes for dissociation rate measurement. Kinetic analysis was performed using a 1:1 binding model.

[2] = target: T2, cynomolgus CD40 overexpressed on CHO-S cells (cynomolgus, UniProt G7PG38 21-278); experiment: flow cytometry on CHO-S cells overexpressing cynomolgus CD40
T2 construct: whole, on cells; also called cynomolgus CD40 expressing CHO cells
Protocol: (§2) Specifically, by transfecting the pCHO1.0 vector (Invitrogen) with the human/cynomolgus CD40 cDNA cloned into the MCS and followed by applying pressure selection, CHO-S cells overexpressing human/cynomolgus CD40 were generated. The expanded CD40 overexpressing cells were adjusted to the appropriate cell density and plated on 96-well flow plate. After centrifugation, the cells were incubated with a gradient-diluted sample at 4° C. for 30 minutes. and the cells were then washed twice with PBS, and followed by incubation with a fluorescent secondary antibody diluted to the appropriate concentration, at 4° C. for 30 min. Following two washes with PBS, cells were resuspended in PBS and fluorescent signals were detection on the CytoFlex flow cytometer to calculate the corresponding MFI.

[3] = target: T1, cynomolgus CD40-Fc protein; experiment: BLI (ForteBio), CD40-Fc on AHQ sensor, 100 nM Fab in solution, monovalent, 1:1 model
Protocol: (§3) The antigen-loaded sensor was incubated with 100 nM Fab solution until a plateau was reached, and then the sensor was transferred to the analysis buffer for at least 2 minutes for dissociation rate measurement. Kinetic analysis was performed using a 1:1 binding model.

[4] = target: T3, human CD40 overexpressed on cells (human, UniProt P25942 21-277); experiment: flow cytometry on CHO-S cells overexpressing human CD40
T3 construct: Cells transfected with human CD40 cDNA; also called CHO-huCD40 cells; CHO-S cells overexpressing human CD40
Protocol: as §2

human CD40-Fc protein [5] = target: T4, human CD40-Fc protein (human, UniProt P25942 21-193); experiment: BLI (ForteBio), IgG on AHQ sensor, 100 nM CD40-Fc in solution, bivalent, 1:1 model
T4 construct: also called human CD40-Fc fusion protein; CD40-Fc antigen; not shown: Fc part
Protocol: as §1

human CD40-Fc protein [6] = target: T4, human CD40-Fc protein; experiment: BLI (ForteBio), CD40-Fc on AHQ sensor, 100 nM Fab in solution, monovalent, 1:1 model
Protocol: as §3

T4 sequence (P25942 21-193 limits assumed): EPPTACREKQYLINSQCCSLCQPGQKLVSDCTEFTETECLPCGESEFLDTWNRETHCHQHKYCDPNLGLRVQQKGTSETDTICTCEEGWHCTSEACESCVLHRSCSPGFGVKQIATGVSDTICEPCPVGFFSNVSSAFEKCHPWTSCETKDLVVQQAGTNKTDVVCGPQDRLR
T3 sequence (P25942 21-277 limits assumed): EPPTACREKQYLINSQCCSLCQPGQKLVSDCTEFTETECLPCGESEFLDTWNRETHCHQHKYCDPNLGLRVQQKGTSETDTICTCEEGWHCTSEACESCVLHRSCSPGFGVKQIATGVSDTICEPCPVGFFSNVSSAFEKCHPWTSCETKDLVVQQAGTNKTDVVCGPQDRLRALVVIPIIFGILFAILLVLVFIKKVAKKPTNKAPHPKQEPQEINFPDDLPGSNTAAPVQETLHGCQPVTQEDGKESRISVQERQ

Binder	Kd [1]	EC50 [2]	Kd [3]	EC50 [4]	Kd (human CD40-Fc protein [5])	Kd (human CD40-Fc protein [6])
B1	0.559 nM	17.9 nM	–	–	–	–
B2	–	–	71 nM	–	–	–
B3	–	–	78.1 nM	–	–	–
B4	0.23 nM	8.53 nM	–	6.3 nM	0.168 nM	–
B5	–	–	5.72 nM	–	–	5.88 nM
B6	–	–	2.21 nM	–	–	2.08 nM
B7	0.19 nM	–	–	–	0.11 nM	–
B8	–	–	5.42 nM	–	–	5.77 nM
B9	–	15 nM	–	11.5 nM	–	–
B10	0.383 nM	4.83 nM	–	–	–	–
B11	–	–	8.87 nM	–	–	8.67 nM
B12	–	–	2.81 nM	–	–	2.74 nM
B13	0.122 nM	8.85 nM	–	4.73 nM	0.111 nM	–
B14	–	–	0.586 nM	–	–	0.988 nM
B15	0.117 nM	8.06 nM	–	5.47 nM	0.1 nM	–
B16	–	–	0.72 nM	–	–	0.663 nM
B17	–	–	263 nM	–	–	152 nM

Reference: patent US20260265391A1 (BIOTHEUS, published 2026)
